Test results as given in PMC1952217 (The EMBO Journal, 2007).

Experiments:
Test in all cases: FRET or BRET
[1] = biological target: T1, Smc3 tagged at its C-terminus with CFP or YFP (S. cerevisiae, UniProt P47037 1-1230)
T1 sequence: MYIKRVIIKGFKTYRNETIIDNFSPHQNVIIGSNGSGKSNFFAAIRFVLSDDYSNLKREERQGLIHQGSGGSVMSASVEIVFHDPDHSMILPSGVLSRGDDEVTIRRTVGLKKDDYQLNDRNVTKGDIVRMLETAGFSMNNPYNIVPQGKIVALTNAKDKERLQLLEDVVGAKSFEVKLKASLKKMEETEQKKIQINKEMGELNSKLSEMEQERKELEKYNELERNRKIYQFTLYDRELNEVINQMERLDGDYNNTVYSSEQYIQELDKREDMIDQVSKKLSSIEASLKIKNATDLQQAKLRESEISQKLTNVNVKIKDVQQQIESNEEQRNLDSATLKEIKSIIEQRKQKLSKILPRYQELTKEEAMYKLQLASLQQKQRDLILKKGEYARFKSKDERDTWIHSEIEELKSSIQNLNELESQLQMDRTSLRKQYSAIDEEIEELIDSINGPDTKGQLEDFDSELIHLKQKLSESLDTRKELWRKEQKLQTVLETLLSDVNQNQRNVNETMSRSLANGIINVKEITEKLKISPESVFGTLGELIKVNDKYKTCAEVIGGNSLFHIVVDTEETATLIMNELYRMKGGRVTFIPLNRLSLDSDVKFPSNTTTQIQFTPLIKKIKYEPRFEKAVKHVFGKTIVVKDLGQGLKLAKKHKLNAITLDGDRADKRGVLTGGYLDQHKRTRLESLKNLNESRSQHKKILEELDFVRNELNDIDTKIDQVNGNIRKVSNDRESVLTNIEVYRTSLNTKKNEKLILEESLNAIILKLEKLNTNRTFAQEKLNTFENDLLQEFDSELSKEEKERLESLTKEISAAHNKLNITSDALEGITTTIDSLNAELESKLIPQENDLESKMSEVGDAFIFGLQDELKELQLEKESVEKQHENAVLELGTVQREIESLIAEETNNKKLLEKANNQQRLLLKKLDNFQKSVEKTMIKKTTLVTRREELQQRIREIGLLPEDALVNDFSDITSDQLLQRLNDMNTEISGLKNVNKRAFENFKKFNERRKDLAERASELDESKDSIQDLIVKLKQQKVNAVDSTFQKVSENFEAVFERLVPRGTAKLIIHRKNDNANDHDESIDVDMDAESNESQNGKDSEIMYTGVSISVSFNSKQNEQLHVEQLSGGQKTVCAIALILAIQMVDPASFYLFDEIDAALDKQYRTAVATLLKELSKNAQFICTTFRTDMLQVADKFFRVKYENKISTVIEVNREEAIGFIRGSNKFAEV

[2] = biological target: T2, Smc1 tagged at its C-terminus with CFP or YFP (S. cerevisiae, UniProt P32908 1-1225)
T2 sequence: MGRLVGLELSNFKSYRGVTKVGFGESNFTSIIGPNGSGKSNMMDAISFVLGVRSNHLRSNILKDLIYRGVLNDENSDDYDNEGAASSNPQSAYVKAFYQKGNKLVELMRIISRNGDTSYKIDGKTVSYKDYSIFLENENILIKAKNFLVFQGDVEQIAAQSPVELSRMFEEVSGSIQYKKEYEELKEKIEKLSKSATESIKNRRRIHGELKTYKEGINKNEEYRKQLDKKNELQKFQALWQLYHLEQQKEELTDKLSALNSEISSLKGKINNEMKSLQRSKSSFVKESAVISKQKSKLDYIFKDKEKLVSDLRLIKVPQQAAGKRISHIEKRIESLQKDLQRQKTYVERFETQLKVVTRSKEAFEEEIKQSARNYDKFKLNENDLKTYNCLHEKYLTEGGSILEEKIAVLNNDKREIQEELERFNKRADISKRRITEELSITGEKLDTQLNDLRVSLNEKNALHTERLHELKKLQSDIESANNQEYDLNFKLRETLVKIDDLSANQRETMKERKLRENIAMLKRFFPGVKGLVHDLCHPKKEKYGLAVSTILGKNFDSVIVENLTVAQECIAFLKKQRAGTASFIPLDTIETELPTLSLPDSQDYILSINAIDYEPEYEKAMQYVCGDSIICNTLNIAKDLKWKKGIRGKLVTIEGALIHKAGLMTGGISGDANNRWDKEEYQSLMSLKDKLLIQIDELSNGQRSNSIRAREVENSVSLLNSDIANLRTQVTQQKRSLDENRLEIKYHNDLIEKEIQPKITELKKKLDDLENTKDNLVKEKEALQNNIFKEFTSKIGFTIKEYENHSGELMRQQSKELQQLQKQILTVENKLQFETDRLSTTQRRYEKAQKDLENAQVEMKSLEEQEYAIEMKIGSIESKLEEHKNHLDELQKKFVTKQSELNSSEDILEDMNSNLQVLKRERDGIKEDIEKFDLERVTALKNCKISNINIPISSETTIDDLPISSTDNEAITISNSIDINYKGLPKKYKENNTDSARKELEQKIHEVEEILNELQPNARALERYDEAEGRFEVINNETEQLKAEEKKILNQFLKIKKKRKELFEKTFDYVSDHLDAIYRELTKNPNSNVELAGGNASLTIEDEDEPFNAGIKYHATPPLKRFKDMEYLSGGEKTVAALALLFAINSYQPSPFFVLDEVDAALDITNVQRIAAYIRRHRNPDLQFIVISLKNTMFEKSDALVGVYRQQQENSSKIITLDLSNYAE

[3] = biological target: T3, Scc1 with CFP or YFP at its C-terminus (S. cerevisiae, UniProt Q12158 1-566)
T3 sequence: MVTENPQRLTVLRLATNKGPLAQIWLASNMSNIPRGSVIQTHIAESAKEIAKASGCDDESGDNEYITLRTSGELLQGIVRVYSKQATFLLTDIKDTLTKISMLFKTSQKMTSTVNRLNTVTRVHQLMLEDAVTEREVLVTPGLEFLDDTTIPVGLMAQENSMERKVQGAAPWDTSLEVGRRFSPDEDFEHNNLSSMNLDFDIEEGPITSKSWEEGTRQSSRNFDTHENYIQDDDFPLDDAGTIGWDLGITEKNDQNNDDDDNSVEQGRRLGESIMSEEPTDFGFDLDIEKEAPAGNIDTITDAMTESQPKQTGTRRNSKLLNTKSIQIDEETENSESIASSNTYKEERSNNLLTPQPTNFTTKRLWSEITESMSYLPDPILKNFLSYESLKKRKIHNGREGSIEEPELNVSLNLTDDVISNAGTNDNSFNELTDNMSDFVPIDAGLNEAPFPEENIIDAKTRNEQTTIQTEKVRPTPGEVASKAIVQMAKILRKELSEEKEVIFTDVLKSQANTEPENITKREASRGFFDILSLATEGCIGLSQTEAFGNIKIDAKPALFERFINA

B1: Scc3 with CFP or YFP at its C-terminus (natural protein)
chain: MTAVRRSTRIRTKSQVIEEDYDDEQNTSAQHVESDKITAKTQHEEEEEQDTGESEESSSEDDYEDQDDDDYVDTATAKRKSRKRKPKSASNTSSKRQKKKPTSAQKSAVSHAPAYHRSKKDQDQYLEIAKDFQPTELFDILSTSEDVSIEELLREWLETYSENRDKFLQEFINLLLNCCGSVARVEDHDVHSNESSNETIGEIQLLFQRQKLHEFYLLISKENKKRKNFKMGPLYQNFAEFMTKLLEVANDLQLLYVESDEDDTQIVTGNLVLDLLTWLSSFSVCKIRCFRYISTLTLYLFQDYLTQQAVNLEKNYLAKLSKQLSLEEKKKRPNNKTLEKLESTIAETQGSKVVIDSIIDNIVKLCFVHRYKDVSDLIRSESMLHLSIWIKNYPEYFLKVTFLKYFGWLLSDNSVSVRLQVTKILPHLIIQNHNSKSTDNSAIRQVFERFKTKILEVAIRDVNLDVRIHSIQVLTEASSLGYLDDSEILIISSLMFDEEFDPFKTSSFNKRSKFLSTVAKFLARVIKEKFDEFIKTHEDLPKEVDGLEVGPVVQVGIFIKILNDSLIYHLKDCAEVDSRTKIRMLTQAAEFLSPYISTHLKTICNLLISDTESNELIQKLQNSANNNSDDEDVDDEELDITPLFPIDRNSTILYLNVFHGLCAGANNPKIQTKDSVKEIVLPLFYDLLNAASIESADILCPLLESFITFSLDDWISIGYETELKKITDKTIKAFMDSTIGNSKVDMKYDIFAKFIHHIHHFEKKELQEKFLNQIATLKIHLKKFLQEKMDPNNSRDDYKDLTCSLYELYINKLTILGRDYPIEVDEELLQLFLNNFVSRIPIMFQDFDDSTAQEINFKMLVLLATWNLEKWREIIEKVRDYENSISKDLRSVWKPIAAIIGRLNTLVISLAATNETFENINSLFYLKWSACTSLMDIIVAIKIFELKLPADATTWRYSMSEQFPFYLHDNASKVLLKIFLYLESLFAKQVDVQLERVADEDANLNDLPETGFFENIETEFLLFTVKLKGLMKLNILDERFASRVALNKEKLGPLFKKIVDDTIMENPEPNKKNIQKAKSNQTQREKAPLQPNSERETDHANTENNDPDIPMTIDLEPIEESSQNNSELAPIEEHPTVVDAIDNSDEITQD
B1 showed an FRETR [1] of 1.37, an FRETR [2] of 1.35 and an FRETR [3] of 1.4.
